Values quoted from earlier work in publication PMC12990809.

Experiments:
Test in all cases: pulldown
Settings in all cases: 20 nM protein, 1.5 uM RNA pool; 20 mM HEPES pH 7.8, 70 mM KCl, 10 mM NaCl, 10% glycerol, 2 mM DTT, 0.1 ug/uL BSA; 30 min, 4 C (protocol of this paper; not …); cited from earlier work
SRSF7 (Homo sapiens) = target: T1, SRSF7 (Homo sapiens) (UniProt Q16629)
T1 sequence: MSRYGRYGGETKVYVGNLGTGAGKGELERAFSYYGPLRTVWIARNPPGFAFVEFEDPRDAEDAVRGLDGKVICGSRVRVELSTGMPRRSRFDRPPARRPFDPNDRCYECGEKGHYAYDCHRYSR

[1] = target: T2, A2bp1 (Drosophila melanogaster) (UniProt Q9VT99)
T2 sequence: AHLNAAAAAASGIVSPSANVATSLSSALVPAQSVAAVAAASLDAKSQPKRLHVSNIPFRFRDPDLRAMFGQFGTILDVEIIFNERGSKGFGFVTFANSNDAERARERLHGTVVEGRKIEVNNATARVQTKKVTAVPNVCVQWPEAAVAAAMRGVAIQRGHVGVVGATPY

[2] = target: T3, VTS1 S437M (Saccharomyces cerevisiae) (UniProt Q08831)
T3 sequence: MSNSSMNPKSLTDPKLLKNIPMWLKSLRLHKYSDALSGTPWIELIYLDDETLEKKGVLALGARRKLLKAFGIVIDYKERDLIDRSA

U2AF2 (Homo sapiens) = U2AF2 (Homo sapiens) (UniProt P26368)
SNRPA (Homo sapiens) = SNRPA (Homo sapiens) (UniProt P09012)
[3] = target: T4, tra2 (Drosophila melanogaster) (UniProt P19018)
T4 sequence: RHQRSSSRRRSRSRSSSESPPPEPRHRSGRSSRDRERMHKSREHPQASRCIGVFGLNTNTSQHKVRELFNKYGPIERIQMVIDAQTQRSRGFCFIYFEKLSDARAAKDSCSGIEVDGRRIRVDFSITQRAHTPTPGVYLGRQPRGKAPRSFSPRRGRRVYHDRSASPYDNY

[4] = target: unc-75 (Caenorhabditis elegans) (UniProt G5EE68)
[5] = target: T5, sm (Drosophila melanogaster) (UniProt A4UZQ5)
T5 sequence: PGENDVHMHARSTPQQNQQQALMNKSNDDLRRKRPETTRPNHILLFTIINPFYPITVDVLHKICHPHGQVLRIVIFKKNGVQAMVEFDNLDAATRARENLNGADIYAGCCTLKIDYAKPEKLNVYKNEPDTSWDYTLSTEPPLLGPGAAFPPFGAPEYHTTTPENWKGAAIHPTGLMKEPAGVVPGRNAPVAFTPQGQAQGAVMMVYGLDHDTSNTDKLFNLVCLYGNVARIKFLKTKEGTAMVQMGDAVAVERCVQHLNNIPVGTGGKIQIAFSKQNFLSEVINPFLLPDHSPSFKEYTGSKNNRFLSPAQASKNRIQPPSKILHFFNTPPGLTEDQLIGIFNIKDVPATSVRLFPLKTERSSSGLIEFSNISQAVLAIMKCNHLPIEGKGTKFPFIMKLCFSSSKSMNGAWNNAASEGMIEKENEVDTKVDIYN

ZC3H10 (Homo sapiens) = target: T6, ZC3H10 (Homo sapiens) (UniProt Q96K80)
T6 sequence: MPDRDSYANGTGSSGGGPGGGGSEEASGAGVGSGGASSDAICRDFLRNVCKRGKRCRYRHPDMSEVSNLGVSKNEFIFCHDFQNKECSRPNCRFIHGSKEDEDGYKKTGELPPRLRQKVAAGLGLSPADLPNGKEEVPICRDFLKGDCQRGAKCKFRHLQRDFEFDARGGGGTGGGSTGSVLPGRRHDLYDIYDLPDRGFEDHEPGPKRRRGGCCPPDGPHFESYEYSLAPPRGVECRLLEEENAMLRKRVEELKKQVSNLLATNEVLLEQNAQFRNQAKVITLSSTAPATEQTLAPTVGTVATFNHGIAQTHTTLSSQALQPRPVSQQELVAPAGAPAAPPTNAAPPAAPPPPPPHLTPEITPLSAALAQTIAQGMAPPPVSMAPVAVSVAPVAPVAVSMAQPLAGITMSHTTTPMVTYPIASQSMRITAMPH

[6] = target: T7, Cnot4 (Drosophila melanogaster) (UniProt M9MRH8)
T7 sequence: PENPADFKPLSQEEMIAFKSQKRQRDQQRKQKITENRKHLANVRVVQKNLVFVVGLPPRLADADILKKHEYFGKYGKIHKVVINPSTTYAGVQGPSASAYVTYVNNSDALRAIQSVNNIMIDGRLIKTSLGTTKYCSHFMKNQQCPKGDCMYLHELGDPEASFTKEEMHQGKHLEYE

ZCRB1 (Homo sapiens) = ZCRB1 (Homo sapiens) (UniProt Q8TBF4)
[7] = target: T8, Sxl (Drosophila melanogaster) (UniProt P19339)
T8 sequence: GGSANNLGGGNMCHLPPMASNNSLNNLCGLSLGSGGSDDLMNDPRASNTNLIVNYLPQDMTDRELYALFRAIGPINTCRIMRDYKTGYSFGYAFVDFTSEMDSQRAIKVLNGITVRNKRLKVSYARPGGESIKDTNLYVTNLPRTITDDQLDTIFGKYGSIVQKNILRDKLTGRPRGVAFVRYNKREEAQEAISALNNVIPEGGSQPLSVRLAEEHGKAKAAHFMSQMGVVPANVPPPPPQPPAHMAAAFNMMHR

[8] = target: T9, elav (Drosophila melanogaster) (UniProt P16914)
T9 sequence: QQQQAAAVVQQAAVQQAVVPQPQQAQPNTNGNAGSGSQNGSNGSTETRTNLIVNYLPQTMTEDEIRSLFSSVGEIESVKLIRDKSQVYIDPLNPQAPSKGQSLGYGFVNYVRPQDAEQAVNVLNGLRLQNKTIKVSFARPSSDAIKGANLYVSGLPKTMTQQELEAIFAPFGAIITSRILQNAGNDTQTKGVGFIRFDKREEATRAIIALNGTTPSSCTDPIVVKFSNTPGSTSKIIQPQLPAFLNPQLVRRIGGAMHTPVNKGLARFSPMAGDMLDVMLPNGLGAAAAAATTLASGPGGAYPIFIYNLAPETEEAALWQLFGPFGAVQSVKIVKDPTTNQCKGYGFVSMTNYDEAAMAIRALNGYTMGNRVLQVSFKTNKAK

TARDBP (Homo sapiens) = TARDBP (Homo sapiens) (UniProt Q13148)
SRSF1 (Homo sapiens) = SRSF1 (Homo sapiens) (UniProt Q07955)
[9] = target: fne (Drosophila melanogaster) (UniProt Q7KIS3)
[10] = target: T10, msi (Drosophila melanogaster) (UniProt H9ZJL0)
T10 sequence: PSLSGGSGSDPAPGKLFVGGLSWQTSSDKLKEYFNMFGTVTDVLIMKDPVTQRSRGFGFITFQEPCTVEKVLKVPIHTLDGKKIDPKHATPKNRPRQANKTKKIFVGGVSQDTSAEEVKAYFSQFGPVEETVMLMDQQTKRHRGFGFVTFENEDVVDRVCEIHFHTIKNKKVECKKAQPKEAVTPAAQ

[11] = target: Hrb98DE (Drosophila melanogaster) (UniProt P07909)
[12] = target: T11, mxt (Drosophila melanogaster) (UniProt Q9VR35)
T11 sequence: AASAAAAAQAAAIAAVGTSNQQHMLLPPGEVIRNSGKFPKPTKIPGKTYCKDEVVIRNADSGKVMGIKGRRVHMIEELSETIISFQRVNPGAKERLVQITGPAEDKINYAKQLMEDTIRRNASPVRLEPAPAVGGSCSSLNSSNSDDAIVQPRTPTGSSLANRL

TIA1 (Homo sapiens) = target: T12, TIA1 (Homo sapiens) (UniProt P31483)
T12 sequence: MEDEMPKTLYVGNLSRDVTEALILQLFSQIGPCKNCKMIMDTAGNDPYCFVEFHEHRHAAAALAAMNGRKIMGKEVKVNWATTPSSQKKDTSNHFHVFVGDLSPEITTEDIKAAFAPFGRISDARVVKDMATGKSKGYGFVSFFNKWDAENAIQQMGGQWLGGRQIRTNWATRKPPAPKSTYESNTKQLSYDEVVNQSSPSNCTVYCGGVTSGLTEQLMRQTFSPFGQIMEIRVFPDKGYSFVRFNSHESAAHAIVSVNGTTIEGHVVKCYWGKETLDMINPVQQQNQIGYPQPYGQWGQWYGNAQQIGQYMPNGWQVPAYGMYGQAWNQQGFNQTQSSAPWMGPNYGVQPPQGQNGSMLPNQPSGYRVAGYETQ

SNRNP70 (Homo sapiens) = SNRNP70 (Homo sapiens) (UniProt P08621)
[13] = target: U2af50 (Drosophila melanogaster) (UniProt Q24562)
[14] = target: T13, orb2 (Drosophila melanogaster) (UniProt Q9VSR3)
T13 sequence: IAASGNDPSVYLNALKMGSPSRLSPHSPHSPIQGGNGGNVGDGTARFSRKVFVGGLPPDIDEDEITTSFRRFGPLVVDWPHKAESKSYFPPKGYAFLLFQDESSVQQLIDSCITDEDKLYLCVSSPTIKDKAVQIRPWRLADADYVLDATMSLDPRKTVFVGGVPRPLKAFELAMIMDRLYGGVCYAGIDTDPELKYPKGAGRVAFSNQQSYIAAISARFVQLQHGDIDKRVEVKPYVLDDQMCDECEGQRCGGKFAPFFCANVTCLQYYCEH

YBX1 (Homo sapiens) = YBX1 (Homo sapiens) (UniProt P67809)
[15] = target: T14, bru-3 (Drosophila melanogaster) (UniProt Q7K305)
T14 sequence: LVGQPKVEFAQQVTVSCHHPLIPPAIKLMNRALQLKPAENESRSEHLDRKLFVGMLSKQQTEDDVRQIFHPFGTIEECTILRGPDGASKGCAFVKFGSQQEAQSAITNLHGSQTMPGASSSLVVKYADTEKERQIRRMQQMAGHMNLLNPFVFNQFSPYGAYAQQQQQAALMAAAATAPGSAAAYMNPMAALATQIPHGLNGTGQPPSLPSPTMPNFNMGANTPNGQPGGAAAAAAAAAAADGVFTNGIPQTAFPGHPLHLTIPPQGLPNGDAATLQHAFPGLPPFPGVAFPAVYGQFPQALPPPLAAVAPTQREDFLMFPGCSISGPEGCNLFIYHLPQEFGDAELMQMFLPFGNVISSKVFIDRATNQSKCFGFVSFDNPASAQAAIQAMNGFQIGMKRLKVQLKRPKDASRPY

YBX2 (Homo sapiens) = YBX2 (Homo sapiens) (UniProt Q9Y2T7)
[16] = target: T15, how (Drosophila melanogaster) (UniProt O01367)
T15 sequence: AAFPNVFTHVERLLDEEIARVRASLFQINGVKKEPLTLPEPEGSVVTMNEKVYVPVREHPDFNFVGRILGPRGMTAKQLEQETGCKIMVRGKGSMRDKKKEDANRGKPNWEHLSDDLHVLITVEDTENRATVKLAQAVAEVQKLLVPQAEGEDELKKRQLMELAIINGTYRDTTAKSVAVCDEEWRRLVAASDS

SNRPA (Homo sapiens), sequence (P09012 whole entry): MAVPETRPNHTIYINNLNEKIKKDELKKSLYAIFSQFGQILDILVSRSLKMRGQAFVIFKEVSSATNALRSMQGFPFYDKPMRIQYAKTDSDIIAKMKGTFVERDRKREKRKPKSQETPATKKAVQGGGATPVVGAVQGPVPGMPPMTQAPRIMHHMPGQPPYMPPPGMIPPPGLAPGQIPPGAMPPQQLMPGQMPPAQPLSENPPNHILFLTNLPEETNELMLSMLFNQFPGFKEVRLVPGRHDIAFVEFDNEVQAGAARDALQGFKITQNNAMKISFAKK
U2af50 (Drosophila melanogaster), sequence (Q24562 45-416): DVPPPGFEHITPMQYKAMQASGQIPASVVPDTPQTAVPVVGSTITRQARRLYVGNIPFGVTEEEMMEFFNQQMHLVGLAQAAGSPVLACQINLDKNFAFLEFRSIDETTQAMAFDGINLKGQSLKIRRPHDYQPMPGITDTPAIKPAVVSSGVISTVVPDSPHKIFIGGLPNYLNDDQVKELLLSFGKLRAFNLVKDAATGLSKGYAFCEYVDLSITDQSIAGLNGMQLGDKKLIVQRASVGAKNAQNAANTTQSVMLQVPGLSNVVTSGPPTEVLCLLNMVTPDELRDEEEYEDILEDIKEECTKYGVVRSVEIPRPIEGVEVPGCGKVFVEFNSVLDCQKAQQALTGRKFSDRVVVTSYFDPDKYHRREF
U2AF2 (Homo sapiens), sequence (P26368 101-475): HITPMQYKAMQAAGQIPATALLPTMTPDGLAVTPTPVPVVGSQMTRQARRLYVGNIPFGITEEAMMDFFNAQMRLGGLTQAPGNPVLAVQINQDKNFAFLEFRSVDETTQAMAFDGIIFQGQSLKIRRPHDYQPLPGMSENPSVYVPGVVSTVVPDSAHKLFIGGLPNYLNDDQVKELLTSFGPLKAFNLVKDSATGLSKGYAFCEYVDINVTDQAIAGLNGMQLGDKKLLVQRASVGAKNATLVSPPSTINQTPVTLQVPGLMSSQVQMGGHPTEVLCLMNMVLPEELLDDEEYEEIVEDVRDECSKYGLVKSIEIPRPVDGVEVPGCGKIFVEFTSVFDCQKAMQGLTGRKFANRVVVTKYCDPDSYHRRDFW
fne (Drosophila melanogaster), sequence (Q7KIS3 entry or part of it): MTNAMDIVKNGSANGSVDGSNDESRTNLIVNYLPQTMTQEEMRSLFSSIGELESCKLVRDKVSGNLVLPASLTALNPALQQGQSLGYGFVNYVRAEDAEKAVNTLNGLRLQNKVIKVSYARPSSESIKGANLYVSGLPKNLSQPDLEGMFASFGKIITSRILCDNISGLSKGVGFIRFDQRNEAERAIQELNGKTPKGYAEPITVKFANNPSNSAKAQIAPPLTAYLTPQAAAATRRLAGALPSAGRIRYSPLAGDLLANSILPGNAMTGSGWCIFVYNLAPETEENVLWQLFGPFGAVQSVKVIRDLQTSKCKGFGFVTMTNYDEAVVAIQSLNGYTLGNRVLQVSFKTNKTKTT
Hrb98DE (Drosophila melanogaster), sequence (P07909 whole entry): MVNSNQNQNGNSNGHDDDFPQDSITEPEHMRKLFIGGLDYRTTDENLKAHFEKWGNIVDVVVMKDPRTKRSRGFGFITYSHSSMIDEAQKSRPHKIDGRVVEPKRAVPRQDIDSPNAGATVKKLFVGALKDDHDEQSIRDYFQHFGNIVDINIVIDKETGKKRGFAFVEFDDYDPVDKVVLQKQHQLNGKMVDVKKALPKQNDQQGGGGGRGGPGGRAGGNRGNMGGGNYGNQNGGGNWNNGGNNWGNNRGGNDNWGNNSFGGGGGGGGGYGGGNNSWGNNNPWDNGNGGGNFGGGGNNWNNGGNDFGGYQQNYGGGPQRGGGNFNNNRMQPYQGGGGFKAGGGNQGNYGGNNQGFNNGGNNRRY
YBX2 (Homo sapiens), sequence (Q9Y2T7 whole entry): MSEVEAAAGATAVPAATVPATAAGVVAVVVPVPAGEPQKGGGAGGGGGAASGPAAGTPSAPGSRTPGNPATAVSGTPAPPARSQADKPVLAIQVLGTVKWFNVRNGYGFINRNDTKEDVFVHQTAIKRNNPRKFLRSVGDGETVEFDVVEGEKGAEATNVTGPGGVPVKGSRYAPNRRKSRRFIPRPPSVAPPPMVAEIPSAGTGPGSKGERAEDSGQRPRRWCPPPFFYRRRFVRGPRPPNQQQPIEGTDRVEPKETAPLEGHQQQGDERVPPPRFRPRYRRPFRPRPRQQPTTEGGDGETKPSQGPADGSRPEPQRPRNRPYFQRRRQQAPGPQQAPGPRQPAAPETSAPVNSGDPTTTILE
TARDBP (Homo sapiens), sequence (Q13148 56-315): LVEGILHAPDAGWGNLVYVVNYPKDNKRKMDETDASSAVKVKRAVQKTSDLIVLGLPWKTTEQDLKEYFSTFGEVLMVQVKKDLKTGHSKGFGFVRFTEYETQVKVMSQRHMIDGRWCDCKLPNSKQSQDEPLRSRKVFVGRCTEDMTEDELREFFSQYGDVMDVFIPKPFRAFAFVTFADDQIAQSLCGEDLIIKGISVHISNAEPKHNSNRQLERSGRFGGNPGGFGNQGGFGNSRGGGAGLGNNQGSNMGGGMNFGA
SNRNP70 (Homo sapiens), sequence (P08621 55-225): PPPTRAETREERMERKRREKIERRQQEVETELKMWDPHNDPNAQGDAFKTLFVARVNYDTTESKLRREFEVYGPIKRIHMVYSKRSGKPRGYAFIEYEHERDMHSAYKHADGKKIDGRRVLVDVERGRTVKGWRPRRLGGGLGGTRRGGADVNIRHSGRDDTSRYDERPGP
YBX1 (Homo sapiens), sequence (P67809 whole entry): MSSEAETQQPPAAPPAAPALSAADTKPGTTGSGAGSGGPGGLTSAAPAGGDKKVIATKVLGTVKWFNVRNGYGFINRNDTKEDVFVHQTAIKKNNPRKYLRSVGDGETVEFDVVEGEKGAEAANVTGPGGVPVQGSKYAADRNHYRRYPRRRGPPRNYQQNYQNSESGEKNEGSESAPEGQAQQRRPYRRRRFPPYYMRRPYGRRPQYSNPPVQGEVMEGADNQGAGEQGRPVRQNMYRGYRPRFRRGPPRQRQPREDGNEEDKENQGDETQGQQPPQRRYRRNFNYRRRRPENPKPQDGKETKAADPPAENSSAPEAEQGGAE
SRSF1 (Homo sapiens), sequence (Q07955 1-202): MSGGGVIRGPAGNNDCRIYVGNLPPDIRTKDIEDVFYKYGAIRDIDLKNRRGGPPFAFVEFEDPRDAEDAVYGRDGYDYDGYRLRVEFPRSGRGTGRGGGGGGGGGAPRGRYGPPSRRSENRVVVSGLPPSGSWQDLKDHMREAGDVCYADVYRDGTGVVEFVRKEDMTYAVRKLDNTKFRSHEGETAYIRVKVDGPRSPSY
ZCRB1 (Homo sapiens), sequence (Q8TBF4 1-132): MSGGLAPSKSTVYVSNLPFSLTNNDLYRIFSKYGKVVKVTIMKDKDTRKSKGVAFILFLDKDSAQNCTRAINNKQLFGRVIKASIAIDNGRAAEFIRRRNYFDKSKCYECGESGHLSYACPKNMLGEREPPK

GACGACG [RNAcompete motif RNCMPT00073]
binding signal (z-score (mean of top ten 7-mers)) (SRSF7 (Homo sapiens)): 11.3

UGCAUG [RNAcompete motif RNCMPT00123]
binding signal (z-score (mean of top ten 7-mers)) [1]: 21.3

GCUGGCC [RNAcompete motif RNCMPT00111]
binding signal (z-score (mean of top ten 7-mers)) [2]: 24.3

UUUUUCC [RNAcompete motif RNCMPT00079]
binding signal (z-score (mean of top ten 7-mers)) (U2AF2 (Homo sapiens)): 17

UUGCACA [RNAcompete motif RNCMPT00071]
binding signal (z-score (mean of top ten 7-mers)) (SNRPA (Homo sapiens)): 10.9

AGAAGA [RNAcompete motif RNCMPT00078]
binding signal (z-score (mean of top ten 7-mers)) [3]: 7.09

UGUUGUG [RNAcompete motif RNCMPT00081]
binding signal (z-score (mean of top ten 7-mers)) [4]: 10.4

AGACAC [RNAcompete motif RNCMPT00069]
binding signal (z-score (mean of top ten 7-mers)) [5]: 11.2

GCAGCGCG [RNAcompete motif RNCMPT00085]
binding signal (z-score (mean of top ten 7-mers)) (ZC3H10 (Homo sapiens)): 16.6

AGACACA [RNAcompete motif RNCMPT00008]
binding signal (z-score (mean of top ten 7-mers)) [6]: 12.4

GAAUUAAG [RNAcompete motif RNCMPT00087]
binding signal (z-score (mean of top ten 7-mers)) (ZCRB1 (Homo sapiens)): 12

UUUUUUU [RNAcompete motif RNCMPT00119]
binding signal (z-score (mean of top ten 7-mers)) [7]: 17.2

UUUUUUU [RNAcompete motif RNCMPT00121]
binding signal (z-score (mean of top ten 7-mers)) [8]: 17.2

GAAUGA [RNAcompete motif RNCMPT00076]
binding signal (z-score (mean of top ten 7-mers)) (TARDBP (Homo sapiens)): 9.33

GAGGAGC [RNAcompete motif RNCMPT00163]
binding signal (z-score (mean of top ten 7-mers)) (SRSF1 (Homo sapiens)): 11.3

UUUUUUU [RNAcompete motif RNCMPT00120]
binding signal (z-score (mean of top ten 7-mers)) [9]: 12.7

GUAGUU [RNAcompete motif RNCMPT00099]
binding signal (z-score (mean of top ten 7-mers)) [10]: 11.6

GGUAGGG [RNAcompete motif RNCMPT00096]
binding signal (z-score (mean of top ten 7-mers)) [11]: 21.8

CAACGA [RNAcompete motif RNCMPT00007]
binding signal (z-score (mean of top ten 7-mers)) [12]: 13.9

UUUUUU [RNAcompete motif RNCMPT00165]
binding signal (z-score (mean of top ten 7-mers)) (TIA1 (Homo sapiens)): 9.41

AUCAAG [RNAcompete motif RNCMPT00070]
binding signal (z-score (mean of top ten 7-mers)) (SNRNP70 (Homo sapiens)): 8.16

UUUUUCC [RNAcompete motif RNCMPT00080]
binding signal (z-score (mean of top ten 7-mers)) [13]: 12.8

UUUUUUG [RNAcompete motif RNCMPT00126]
binding signal (z-score (mean of top ten 7-mers)) [14]: 15.9

AACAUC [RNAcompete motif RNCMPT00083]
binding signal (z-score (mean of top ten 7-mers)) (YBX1 (Homo sapiens)): 14.5

GUGUUGU [RNAcompete motif RNCMPT00122]
binding signal (z-score (mean of top ten 7-mers)) [15]: 20.4

AACANC [RNAcompete motif RNCMPT00084]
binding signal (z-score (mean of top ten 7-mers)) (YBX2 (Homo sapiens)): 9.95

ACUAAC [RNAcompete motif RNCMPT00118]
binding signal (z-score (mean of top ten 7-mers)) [16]: 25.4
